Test results as given in IntAct's records for PubMed 20553494.

B1: Homeobox protein Meis2 (Homo sapiens), O14770-4 (parent)
chain: MAQRYDELPHYGGMDGVGVPASMYGDPHAPRPIPPVHHLNHGPPLHATQHYGAHAPHPNVMPASMGSAVNDALKRDKDAIYGHPLFPLLALVFEKCELATCTPREPGVAGGDVCSSDSFNEDIAVFAKQVRAEKPLFSSNPELDNLMIQAIQVLRFHLLELEKVHELCDNFCHRYISCLKGKMPIDLVIDERDGSSKSDHEELSGSSTNLADHNPSSWRDHDDATSTHSAGTPGPSSGGHASQSGDNSSEQGDGLDNSVASPGTGDDDDPDKDKKRQKKRGIFPKVATNIMRAWLFQHLTHPYPSEEQKKQLAQDTGLTILQVNNWFINARRRIVQPMIDQSNRAVSQGAAYSPEGQPMGSFVLDGQQHMGIRPAGLQSMPGDYVSQGGPMGMSMAQPSYTPPQMTPHPTQLRHGPPMHSYLPSHPHHPAMMMHGGPPTHPGMTMSAQSPTMLNSVDPNVGGQVMDIHAQ
partner: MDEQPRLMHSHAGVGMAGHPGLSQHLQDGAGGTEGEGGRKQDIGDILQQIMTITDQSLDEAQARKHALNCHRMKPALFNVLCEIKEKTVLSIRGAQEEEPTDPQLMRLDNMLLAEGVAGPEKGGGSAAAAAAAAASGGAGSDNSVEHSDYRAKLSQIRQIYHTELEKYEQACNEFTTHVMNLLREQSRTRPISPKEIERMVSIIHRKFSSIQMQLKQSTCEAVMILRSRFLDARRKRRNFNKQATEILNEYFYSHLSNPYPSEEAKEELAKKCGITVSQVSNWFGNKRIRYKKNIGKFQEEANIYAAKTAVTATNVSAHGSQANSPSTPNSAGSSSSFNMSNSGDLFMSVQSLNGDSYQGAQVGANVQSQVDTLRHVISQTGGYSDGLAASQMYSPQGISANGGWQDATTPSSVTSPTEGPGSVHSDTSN

Variants of: B1
Details: with pbx1_human PBX1, P40424

effect of a mutation on the interaction	Variant
decreasing interaction	MAQRYDELPHYGGMDGVGVPASMYGDPHAPRPIPPVHHLNHGPPLHATQHYGAHAPHPNVMPASMGSAVNDALKRDKDAIYGHPLFPLLALVFENCELATCTPREPGVAGGDVCSSDSFNEDIAVFAKQVRAEKPLFSSNPELDNLMIQAIQVLRFHLLELEKVHELCDNFCHRYISCLKGKMPIDLVIDERDGSSKSDHEELSGSSTNLADHNPSSWRDHDDATSTHSAGTPGPSSGGHASQSGDNSSEQGDGLDNSVASPGTGDDDDPDKDKKRQKKRGIFPKVATNIMRAWLFQHLTHPYPSEEQKKQLAQDTGLTILQVNNWFINARRRIVQPMIDQSNRAVSQGAAYSPEGQPMGSFVLDGQQHMGIRPAGLQSMPGDYVSQGGPMGMSMAQPSYTPPQMTPHPTQLRHGPPMHSYLPSHPHHPAMMMHGGPPTHPGMTMSAQSPTMLNSVDPNVGGQVMDIHAQ [K95N]
decreasing interaction	MAQRYDELPHYGGMDGVGVPASMYGDPHAPRPIPPVHHLNHGPPLHATQHYGAHAPHPNVMPASMGSAVNDALKRDKDAIYGHPLFPLLALVFEKGELATCTPREPGVAGGDVCSSDSFNEDIAVFAKQVRAEKPLFSSNPELDNLMIQAIQVLRFHLLELEKVHELCDNFCHRYISCLKGKMPIDLVIDERDGSSKSDHEELSGSSTNLADHNPSSWRDHDDATSTHSAGTPGPSSGGHASQSGDNSSEQGDGLDNSVASPGTGDDDDPDKDKKRQKKRGIFPKVATNIMRAWLFQHLTHPYPSEEQKKQLAQDTGLTILQVNNWFINARRRIVQPMIDQSNRAVSQGAAYSPEGQPMGSFVLDGQQHMGIRPAGLQSMPGDYVSQGGPMGMSMAQPSYTPPQMTPHPTQLRHGPPMHSYLPSHPHHPAMMMHGGPPTHPGMTMSAQSPTMLNSVDPNVGGQVMDIHAQ [C96G]
decreasing interaction	MAQRYDELPHYGGMDGVGVPASMYGDPHAPRPIPPVHHLNHGPPLHATQHYGAHAPHPNVMPASMGSAVNDALKRDKDAIYGHPLFPLLALVFEKCTLATCTPREPGVAGGDVCSSDSFNEDIAVFAKQVRAEKPLFSSNPELDNLMIQAIQVLRFHLLELEKVHELCDNFCHRYISCLKGKMPIDLVIDERDGSSKSDHEELSGSSTNLADHNPSSWRDHDDATSTHSAGTPGPSSGGHASQSGDNSSEQGDGLDNSVASPGTGDDDDPDKDKKRQKKRGIFPKVATNIMRAWLFQHLTHPYPSEEQKKQLAQDTGLTILQVNNWFINARRRIVQPMIDQSNRAVSQGAAYSPEGQPMGSFVLDGQQHMGIRPAGLQSMPGDYVSQGGPMGMSMAQPSYTPPQMTPHPTQLRHGPPMHSYLPSHPHHPAMMMHGGPPTHPGMTMSAQSPTMLNSVDPNVGGQVMDIHAQ [E97T]

Variants of: B1
Details: with pbx1_human PBX1, P40424
Remark: another data set of the same source

effect of a mutation on the interaction	Variant
decreasing interaction	MAQRYDELPHYGGMDGVGVPASMYGDPHAPRPIPPVHHLNHGPPLHATQHYGAHAPHPNVMPASMGSAVNDALKRDKDAIYGHPLFPLLALVFEKCELATCTPREPGVAGGDVCSSDSFNEDIAVFAKQVRAEKPLFSSNPELDNLMIQAAQVLRFHLLELEKVHELCDNFCHRYISCLKGKMPIDLVIDERDGSSKSDHEELSGSSTNLADHNPSSWRDHDDATSTHSAGTPGPSSGGHASQSGDNSSEQGDGLDNSVASPGTGDDDDPDKDKKRQKKRGIFPKVATNIMRAWLFQHLTHPYPSEEQKKQLAQDTGLTILQVNNWFINARRRIVQPMIDQSNRAVSQGAAYSPEGQPMGSFVLDGQQHMGIRPAGLQSMPGDYVSQGGPMGMSMAQPSYTPPQMTPHPTQLRHGPPMHSYLPSHPHHPAMMMHGGPPTHPGMTMSAQSPTMLNSVDPNVGGQVMDIHAQ [I151A]

Variants of: B1
Details: with pbx1_human PBX1, P40424
Remark: another data set of the same source

effect of a mutation on the interaction	Variant
decreasing interaction	MAQRYDELPHYGGMDGVGVPASMYGDPHAPRPIPPVHHLNHGPPLHATQHYGAHAPHPNVMPASMGSAVNDALKRDKDAIYGHPLFPLLALVFEKCELATCTPREPGVAGGDVCSSDSFNEDIAVFAKQVRAEKPLFSSNPELDNLMIQAIQVLRFHLAELEKVHELCDNFCHRYISCLKGKMPIDLVIDERDGSSKSDHEELSGSSTNLADHNPSSWRDHDDATSTHSAGTPGPSSGGHASQSGDNSSEQGDGLDNSVASPGTGDDDDPDKDKKRQKKRGIFPKVATNIMRAWLFQHLTHPYPSEEQKKQLAQDTGLTILQVNNWFINARRRIVQPMIDQSNRAVSQGAAYSPEGQPMGSFVLDGQQHMGIRPAGLQSMPGDYVSQGGPMGMSMAQPSYTPPQMTPHPTQLRHGPPMHSYLPSHPHHPAMMMHGGPPTHPGMTMSAQSPTMLNSVDPNVGGQVMDIHAQ [L159A]

Variants of: B1
Details: with pbx1_human PBX1, P40424
Remark: another data set of the same source

effect of a mutation on the interaction	Variant
decreasing interaction	MAQRYDELPHYGGMDGVGVPASMYGDPHAPRPIPPVHHLNHGPPLHATQHYGAHAPHPNVMPASMGSAVNDALKRDKDAIYGHPLFPLLALVFEKCELATCTPREPGVAGGDVCSSDSFNEDIAVFAKQVRAEKPLFSSNPELDNLMIQAIQVLRFHLLALEKVHELCDNFCHRYISCLKGKMPIDLVIDERDGSSKSDHEELSGSSTNLADHNPSSWRDHDDATSTHSAGTPGPSSGGHASQSGDNSSEQGDGLDNSVASPGTGDDDDPDKDKKRQKKRGIFPKVATNIMRAWLFQHLTHPYPSEEQKKQLAQDTGLTILQVNNWFINARRRIVQPMIDQSNRAVSQGAAYSPEGQPMGSFVLDGQQHMGIRPAGLQSMPGDYVSQGGPMGMSMAQPSYTPPQMTPHPTQLRHGPPMHSYLPSHPHHPAMMMHGGPPTHPGMTMSAQSPTMLNSVDPNVGGQVMDIHAQ [E160A]
decreasing interaction	MAQRYDELPHYGGMDGVGVPASMYGDPHAPRPIPPVHHLNHGPPLHATQHYGAHAPHPNVMPASMGSAVNDALKRDKDAIYGHPLFPLLALVFEKCELATCTPREPGVAGGDVCSSDSFNEDIAVFAKQVRAEKPLFSSNPELDNLMIQAIQVLRFHLLELEAVHELCDNFCHRYISCLKGKMPIDLVIDERDGSSKSDHEELSGSSTNLADHNPSSWRDHDDATSTHSAGTPGPSSGGHASQSGDNSSEQGDGLDNSVASPGTGDDDDPDKDKKRQKKRGIFPKVATNIMRAWLFQHLTHPYPSEEQKKQLAQDTGLTILQVNNWFINARRRIVQPMIDQSNRAVSQGAAYSPEGQPMGSFVLDGQQHMGIRPAGLQSMPGDYVSQGGPMGMSMAQPSYTPPQMTPHPTQLRHGPPMHSYLPSHPHHPAMMMHGGPPTHPGMTMSAQSPTMLNSVDPNVGGQVMDIHAQ [K163A]
